Earlier results, collected in PMC5450005.
Read-outs that look alike come from different tables or passages of the source.

Experiments:
[1] = target: ApelinR (Rattus norvegicus) (UniProt Q9JHG3)
[2] = target: ApelinR (Rattus norvegicus) (UniProt Q9JHG3); remark: listed apart in the source

Chain of UniProt Q9JHG3 (Q9JHG3 whole entry): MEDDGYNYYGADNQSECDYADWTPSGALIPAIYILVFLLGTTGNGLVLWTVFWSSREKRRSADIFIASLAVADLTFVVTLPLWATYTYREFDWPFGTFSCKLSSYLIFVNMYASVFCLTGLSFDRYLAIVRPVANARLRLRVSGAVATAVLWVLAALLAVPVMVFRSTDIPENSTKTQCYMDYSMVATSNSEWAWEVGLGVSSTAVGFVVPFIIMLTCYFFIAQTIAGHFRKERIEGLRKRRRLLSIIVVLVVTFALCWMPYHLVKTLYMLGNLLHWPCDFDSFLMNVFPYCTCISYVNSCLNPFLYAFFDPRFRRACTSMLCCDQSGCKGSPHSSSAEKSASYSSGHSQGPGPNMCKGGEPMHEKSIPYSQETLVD

In the case of K17F (apelin-17) (from UniProt Q9ULZ1), the Ki [1] is listed as 0.06 nM.

For pE13F (apelin-13) (from UniProt Q9ULZ1), the Ki [2] is given as 0.56 nM.
